Here are results for two molecules from US20200165343A1 (Dana-Farber, published 2020).

Test [1] addresses MICA extracellular domain (α1-α3 domains), allele not stated (human) (UniProt Q29983). As to the kind of experiment: fluorescence ELISA (DELFIA): immobilized MICA extracellular domain, antibody titrated, biotinylated anti-mouse IgG + Europium-streptavidin. (An ELISA detects its analyte on a solid surface through an enzyme-linked reagent.)
For test [2], the target named is T1, MICA extracellular domain (α1-α3 domains), allele not stated (human, UniProt Q29983 24-307).
T1 construct: extracellular domain; also called MICA α1-α3 domains; full-length extracellular domain
T1 sequence (looked up): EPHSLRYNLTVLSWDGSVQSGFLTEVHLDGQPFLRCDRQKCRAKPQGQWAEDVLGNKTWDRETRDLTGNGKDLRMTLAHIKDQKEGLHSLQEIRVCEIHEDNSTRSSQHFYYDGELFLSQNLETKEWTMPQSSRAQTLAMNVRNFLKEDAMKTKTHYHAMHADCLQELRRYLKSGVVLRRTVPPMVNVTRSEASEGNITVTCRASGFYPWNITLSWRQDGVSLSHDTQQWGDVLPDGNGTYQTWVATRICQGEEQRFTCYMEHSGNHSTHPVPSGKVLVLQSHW
Described as above.

One may read the EC50 as the midpoint of the concentration-response curve.

Regarding “mAb 6D4 (anti-MICA/B antibody, clone 6D4, Biolegend; specific for the MICA α1-α2 domains)”, in test [1], the EC50 was determined as 1 µg/mL.

B1: mAb 7C6 (parental murine IgG2b monoclonal antibody specific for the MICA/B α3 domain) (antibody, V domains shown)
VH: QIQLVQSGPELKKPGETVKVSCKASGYMFTNYAMNWVKQAPEKGLKWMGWINTHTGDPTYADDFKGRIAFSLETSASTAYLQINNLKNEDTATYFCVRTYGNYAMDYWGQGTSVTVSS
VL: DIQMTQTTSSLSASLGDRVTISCSASQDISNYLNWYQQKPDGTVKLLIYDTSILHLGVPSRFSGSGSGTDYSLTISNLEPEDIATYYCQQYSKFPRTFGGGTTLEIK
notes: Mouse hybridoma antibody; also called 7C6 mAb; 7C6-mIgG2b
Take B1: the EC50 in test [2] was 1 µg/mL.
